Test results: US20150191542A1 (INNATE PHARMA S A, published 2015)
Where two headings read alike, the source gives them in different places.

How the values were obtained:
[1] = target: T1, recombinant human MICA extracellular domain recombinant-Fc protein (MICA*019 allele) (human, UniProt Q29983 24-297); experiment: SPR Biacore T100 (FIG. 1)
T1 construct: Bought from R&D Systems; also called MICA*019-Fc; MICA-Fc; not shown: Fc part of the bought fusion protein (R&D Systems)
T1 chain: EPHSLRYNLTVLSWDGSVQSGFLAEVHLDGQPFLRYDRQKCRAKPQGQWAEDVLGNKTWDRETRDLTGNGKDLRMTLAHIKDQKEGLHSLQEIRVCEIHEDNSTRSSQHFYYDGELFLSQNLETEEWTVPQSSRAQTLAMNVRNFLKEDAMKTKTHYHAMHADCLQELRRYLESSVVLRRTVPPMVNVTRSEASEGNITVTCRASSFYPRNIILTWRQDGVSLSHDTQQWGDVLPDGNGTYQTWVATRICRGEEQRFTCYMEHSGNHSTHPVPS
Procedure: The binding of 9C10, 20C6 and 16A8 to either recombinant human MICA extracellular domain recombinant protein monomers or dimers (MICA*019 allele-Fc protein or MICA*001-His protein) as well as other NKG2D ligands MICB and ULBP1-2 was analyzed by Surface Plasmon Resonance (SPR) using a Biacore T100 apparatus to obtain monovalent and bivalent affinity, respectively. Biotinylated anti-MICA antibodies were injected at a constant rate of 10 μl/min over the Sensor Chip CAP flow-cells comprising Biotin CAPture Reagent. MICA-Fc or MICA-His protein, MICB-Fc, ULBP1-Fc or ULBP2-Fc protein is then injected successively (range of concentrations between 0.01-100 nM), with regeneration between injections, and in increasing order over two flowcells simultaneously. Curves are fitted using Biacore T100 Evaluation software.
(a) General Biacore T100 methods. SPR measurements were performed on a Biacore T100 apparatus (Biacore GE Healthcare) at 25° C. In all Biacore experiments HBS-EP+ buffer (Biacore GE Healthcare) or 10 mM sodium acetate pH 7.4, 150 mM NaCl, 0.05% P20 served as running buffer and sensorgrams were analyzed with Biaevaluation 4.1 and Biacore T100 Evaluation software. Recombinant human and mouse TLR3 were purchased from R&D Systems.

[2] = target: T2, MICA*001 expressed on transfected cells (human); experiment: flow cytometry on C1R-MICA*001 cells, 3-parameter logistic fit
T2 construct: the cells carry the complete allele; also called C1R-MICA*001; C1R-MICA*01
T2 chain: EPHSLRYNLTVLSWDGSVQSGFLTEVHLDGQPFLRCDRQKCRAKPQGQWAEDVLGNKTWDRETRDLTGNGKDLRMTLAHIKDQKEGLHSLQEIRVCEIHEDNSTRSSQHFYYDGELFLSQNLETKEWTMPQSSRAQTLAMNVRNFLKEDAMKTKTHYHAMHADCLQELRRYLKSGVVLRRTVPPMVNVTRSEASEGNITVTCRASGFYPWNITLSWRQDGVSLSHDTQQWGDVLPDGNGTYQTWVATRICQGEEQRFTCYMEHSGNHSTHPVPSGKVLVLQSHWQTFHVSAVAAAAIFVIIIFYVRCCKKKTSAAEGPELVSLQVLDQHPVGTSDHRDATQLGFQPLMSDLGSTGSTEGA
Procedure: (§1) The binding of antibodies obtained from the first and second immunization series (including 9C10, 20C6 and 16A8) were tested for binding to MICA-expressing CR1 transfectant cells C1R-MICA*001, C1R-MICA*004, C1R-MICA*007 and C1R-MICA*008 (Pr. A. Steinle, Eberhard-Karls University Tuebingen, Germany) described in Salih et al. (2003) Blood 102(4): […]. Binding was analyzed by flow cytometry.
(§2) Cells were harvested and stained in PBS 1×/BSA 0,2%/EDTA 2 mM buffer during 30 minutes at 4° C. using a dose-range of the anti-MICA mAbs. After two washes in staining buffer, cells were stained for 30 min at 4° C. with goat anti-mouse (H+L)-PE polyclonal antibodies (1/200). After two washes, stainings were acquired on a BD FACS Canto II and analyzed using the FlowJo software.
(§3) Antibodies 9C10, 20C6 and 16A8 bound to each of the C1R-MICA*001, C1R-MICA*004, C1R-MICA*007 and C1R-MICA*008 cells (see FIGS. 3A, 3B and 3C for antibodies 9C10, 20C6 and 16A8 respectively). […] EC50 values are shown in Table C in μg/ml (calculated using a 3-parameter logistic fit).

[3] = target: T3, MICA*004 expressed on C1R transfectant cells (human, UniProt Q29983 24-297, Glycosylated on cells; the letters do not carry this.); experiment: flow cytometry on C1R-MICA*004 cells, 3-parameter logistic fit
T3 construct: also called C1R-MICA*004; C1R-MICA*04
T3 chain: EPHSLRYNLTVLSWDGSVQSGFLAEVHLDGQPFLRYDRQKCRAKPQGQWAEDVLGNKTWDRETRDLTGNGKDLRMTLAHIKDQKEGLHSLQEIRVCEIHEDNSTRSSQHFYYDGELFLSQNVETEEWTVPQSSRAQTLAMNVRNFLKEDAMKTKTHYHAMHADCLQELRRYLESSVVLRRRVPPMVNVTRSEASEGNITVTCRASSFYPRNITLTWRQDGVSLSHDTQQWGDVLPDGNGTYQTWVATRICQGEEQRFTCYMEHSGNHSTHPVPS
Procedure: as §1, §2, §3

[4] = target: T4, MICA*007 expressed on C1R transfectant cells (human, UniProt Q29983 24-297, Glycosylated on cells; the letters do not carry this.); experiment: flow cytometry on C1R-MICA*007 cells, 3-parameter logistic fit
T4 construct: also called C1R-MICA*007; C1R-MICA*07
T4 chain: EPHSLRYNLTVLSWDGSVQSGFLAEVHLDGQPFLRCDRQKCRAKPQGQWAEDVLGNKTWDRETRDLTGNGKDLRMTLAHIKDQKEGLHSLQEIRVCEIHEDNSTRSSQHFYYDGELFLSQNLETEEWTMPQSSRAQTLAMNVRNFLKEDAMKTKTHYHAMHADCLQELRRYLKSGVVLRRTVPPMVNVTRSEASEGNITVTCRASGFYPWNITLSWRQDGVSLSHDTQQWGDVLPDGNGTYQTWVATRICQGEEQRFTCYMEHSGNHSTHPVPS
Procedure: as §1, §2, §3

[5] = target: T5, MICA*008 expressed on C1R transfectant cells (human, UniProt Q29983 24-297, Glycosylated on cells; the letters do not carry this.); experiment: flow cytometry on C1R-MICA*008 cells, 3-parameter logistic fit
T5 construct: also called C1R-MICA*008; C1R-MICA*08
T5 chain: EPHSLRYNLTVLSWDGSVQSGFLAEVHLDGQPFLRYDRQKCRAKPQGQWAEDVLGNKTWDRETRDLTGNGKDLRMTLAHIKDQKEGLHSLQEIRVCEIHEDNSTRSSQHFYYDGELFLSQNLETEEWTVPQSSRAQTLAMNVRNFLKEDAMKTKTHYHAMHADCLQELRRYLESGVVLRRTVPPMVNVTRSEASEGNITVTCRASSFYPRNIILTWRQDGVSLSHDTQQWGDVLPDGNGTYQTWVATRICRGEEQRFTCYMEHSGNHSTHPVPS
Procedure: as §1, §2, §3

[6] = target: T2, MICA*001 expressed on transfected cells; experiment: flow cytometry, MFI against antibody concentration on C1R-MICA*01 cells
Procedure: as §1, §2

[7] = target: T3, MICA*004 expressed on C1R transfectant …; experiment: flow cytometry, MFI against antibody concentration on C1R-MICA*04 cells
Procedure: as §1, §2

[8] = target: T4, MICA*007 expressed on C1R transfectant …; experiment: flow cytometry, MFI against antibody concentration on C1R-MICA*07 cells
Procedure: as §1, §2

[9] = target: T5, MICA*008 expressed on C1R transfectant …; experiment: flow cytometry, MFI against antibody concentration on C1R-MICA*08 cells
Procedure: as §1, §2

[10] = target: T3, MICA*004 expressed on C1R transfectant …; experiment: flow cytometry, MFI against antibody concentration on C1R-MICA*04 cells
[11] = target: T4, MICA*007 expressed on C1R transfectant …; experiment: flow cytometry, MFI against antibody concentration on C1R-MICA*07 cells
[12] = target: T5, MICA*008 expressed on C1R transfectant …; experiment: flow cytometry, MFI against antibody concentration on C1R-MICA*08 cells

B1: antibody 20C6 (antibody, V domains shown)
VH: QITLKESGPGILKPSQTLSLTCSFSGFSLSTSGMGVGWIRQPSGKGLEWLAHIWWDDDKYYNPSLKSQLTISKDTSRNQVFLRITSVDTADTATYYCARRTQGYFDYWGQGTTLTVSS
VL: DIVMTQSPATLSVTPGDRVSLSCRASQSISDYLHWYQQKSHESPRLLIKYASQSISGIPSRFSGSGSGSDFTLSINSVEPEDVGVYYCQNGHSFPWTFGGGTKLEIK
notes: Murine hybridoma antibody of IgG1 isotype as tested
For B1, the binding result [1] was “binds”, the EC50 [2] was 0.3 µg/mL and the EC50 [3] was 0.08 µg/mL. For the same binder, the EC50 [4] was 1.58 µg/mL, the EC50 [5] was 0.17 µg/mL and the “EC50 (read off the curve)” value [6] was ~0.3 µg/mL. For the same binder, the “EC50 (read off the curve)” value [7] was ~0.07 µg/mL, the “EC50 (read off the curve)” value [8] was ~0.5 µg/mL and the “EC50 (read off the curve)” value [9] was ~0.2 µg/mL.

B2: CHG1-M-MIA-12A10 (antibody, V domains shown)
VH: QVQLQQSGADLVRPGASVRLSCRASGYSFTNYWMNWVKQRPGQGLEWIGMIHPSDSETRLNQKFKDKATLTVDKSSNTAYMQLSSPTSEDSAIYYCARDDFFTMDYWGQGTSVTVSS
VL: DILLTQSPAILSVSPGERVSFSCRASQNIVTSIHWYQQSTNGSPRLLIKYASESISGIPSRFSGSGSGTDFTLTINSVESEDVADYYCQQSNIWPLTFGAGTKLELK
For B2, the “EC50 (read off the curve)” value [6] was ~1 µg/mL.

B3: CHG1-M-MIA-10F3 (antibody, V domains shown)
VH: QVQLQQSAAELARPGASVKMSCKASGYTFTSYTMHWVKQRPGQGLEWIGYINPSSGYTEYNQKFKDKTTLTVDKSSTTSYMQLSSLTSDNSAVYYCARGGDWDVDWFVYWGQGTLVTVSA
VL: QIVLTQSPAIMSASPGEKVTITCSASSSISYMHWFQQKPGTSPKLWIYSTSKLASGVPARFSGSGSGTSHSLTISRMEAEDAATYYCQHRSTYPFTFGSGTKLEIK
In the case of B3, the “EC50 (read off the curve)” value [6] is reported as ~0.5 µg/mL.

B4: CHG1-M-MIA-18E8 (antibody, V domains shown)
VH: DVQLQESGPDLVNPSQSLSLICTVTGYSITSDYSWHWIRQFPGNKLEWMGNIHYSGRINYNPSLRSRISITRDTSKNQFFLQLISVTTEDTATYYCATRRTFGNFEDYWGQGTTLTVSS
VL: QIVLSQSPATLSVSPGEKVTMTCRSSSSVNYMHWYQQKPGSSPKPWIYATSTLASGVPARFSGSGSGTSYSLTISRVEAEDAATYYCQQWSSNPLTFGAGTKLELK
B4 was tested, and the “EC50 (read off the curve)” value [6] was ~0.5 µg/mL.

B5: CHG1-M-MIA-15F9 (antibody, V domains shown)
VH: DVQLQESGPDLVKPSQSLSLTCTVTGYSITSGYSWHWIRQFPGNKLEWMGFIHYSGSTDYNPSLKSRISLTRDTSKNQFFLQLNSVSTEDTATYYCAKDYGHWYFDVWGAGTTVTVSS
VL: SIVMTQTPKFLLVSAGDRVTITCKASQSVSYDVAWYQQKPGQSPKLLIFYASNRYTGVPARFTGSGYGTDFTFTISTVQAEDLAVYFCQQDYSSLTFGAGTKLELK
With B5 the “EC50 (read off the curve)” value [10] was ~0.5 µg/mL, the binding result [11] was “binds” and the “EC50 (read off the curve)” value [12] was ~0.8 µg/mL.
